Assay [1] deals with Gallionella sp. form II RuBisCO R131A (Gallionella sp.). Description: SEC-MALS + other: SAXS; SEC-SAXS-MALS; RuBisCO at 2 to 5 mg/ml, activated with excess NaHCO3; Shodex KW-803 column; 20 mM Hepes-OH pH 8.0, 300 mM NaCl, 10 mM MgCl2, 10 mM NaHCO3; oligomeric state of the enzyme. (In general: Size exclusion chromatography separates by hydrodynamic size, large species first.)
The target of assay [2] is Rhodospirillaceae bacterium BRH_c57 form II RuBisCO (Rhodospirillaceae bacterium BRH_c57). Put plainly: crystal structure; X-ray; RuBisCO activated and incubated with a tenfold molar excess of CABP; molecular replacement.
For assay [3] the target is unchanged. Description: SEC-MALS + other: SAXS; SEC-SAXS-MALS; RuBisCO at 2 to 5 mg/ml, activated with excess NaHCO3; Shodex KW-803 column; 20 mM Hepes-OH pH 8.0, 300 mM NaCl, 10 mM MgCl2, 10 mM NaHCO3; oligomeric state of the enzyme.
Assay [4] deals with Gallionella sp. form II RuBisCO, wild type (GWS1B) (Gallionella sp.). The description is as above.
Assay [5] addresses Gallionella sp. form II RuBisCO R98A (Gallionella sp.). The description is as above.
Assay [6] deals with Insolitispirillum peregrinum form II RuBisCO, wild type (Insolitispirillum peregrinum). The description is as above.
For assay [7], the target named is Sulfurivirga caldicuralii form II RuBisCO (Sulfurivirga caldicuralii). Put plainly: crystal structure; X-ray; RuBisCO activated and incubated with a tenfold molar excess of CABP; molecular replacement.
The target is the same in assay [8]. Description: SEC-MALS + other: SAXS; SEC-SAXS-MALS; RuBisCO at 2 to 5 mg/ml, activated with excess NaHCO3; Shodex KW-803 column; 20 mM Hepes-OH pH 8.0, 300 mM NaCl, 10 mM MgCl2, 10 mM NaHCO3; oligomeric state of the enzyme.

As for “Gallionella sp. form II RuBisCO R131A (enzyme)”, the stoichiometry N – broadly, the number of molecules, sites or subunits per partner or assembly – in assay [1] was found to be 2.

Regarding “Rhodospirillaceae bacterium BRH_c57 form II RuBisCO (enzyme)”, the stoichiometry N in assay [2] and in assay [3] was 6 each time.

In the case of “Gallionella sp. form II RuBisCO, wild type (GWS1B) (enzyme)”, the stoichiometry N in assay [4] came out at 6.

For “Gallionella sp. form II RuBisCO R98A (enzyme)”, the stoichiometry N in assay [5] turned out to be 2.

Take “Insolitispirillum peregrinum form II RuBisCO, wild type (enzyme)”: in assay [6], the stoichiometry N amounted to 2.

On to “Sulfurivirga caldicuralii form II RuBisCO (enzyme)”, for which the stoichiometry N in assay [7] and in assay [8] was 4 in each case.

These data come from article PMC9417184.
